Reference: the supplement of paper PMC9170038

test system: K4 kissing-loop RNA reporter; assay: apparent KD of K4 kissing-loop reporter; higher = weaker reporter binding; details: Eterna round: R107; input ligand: theophylline 20 uM
Description: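 RNA-MaP round R107: designed RNA switches with theophylline, tryptophan, arginine or FMN aptamers are transcribed on-chip within common flanks. They are titrated with a labelled K4 kissing-loop RNA reporter in RNA-MaP buffer (100 mM Tris pH 7.5, 80 mM KCl, 4 mM MgCl2), without ligand or with the indicated ligand. Median apparent KD per design.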
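Also: bound reporter read as fluorescence of individual clusters on recovered sequencing chips by microscopy, with normalized cluster intensities fitted with a binding model.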

Row | Sequence | apparent KD of K4 kissing-loop reporter [nM]
1 | CAGAACUUGUAUACAGGGCAUGCCAGAGAUACCAGUCAAAUGGAAGGCCCUUGGCAGCUCAGGCGAGUGAUGUUCGCAGGCUGAC [Exclusion Theophylline A GF 19] | 131
2 | AGACUACUGAUAGGAUAUAACAUCCUAGUCGUAUACCGAAAGGUAUACGAUUUCCUUCUAGUGAUGUUAGAAGGGUCGGUAGUCA [Omei KL FMN B Exc B v11] | 81.1
3 | GGAUAGGAGAGAGGAUAUGGGCUAGGCAAGAAUAACUUGUCUAGCAAAUCCAUGAGGAGUGAUGUUCCAGAAGGCUCUCCUAUCG [FmnBX 1 G9+C77] | 143
4 | CAAAACGAGUGAUGUUCGGACAACAACGUUAAGGAUAUACUUCUCUGUAGAAGGUAACAGUAUUUAUAUUUCAUCAACGAAAAUG [theeternabot_exclusion_KL_FMN_A_12] | 248
5 | AAAUAUUCGAGUGAUGUUCGAUAAAUUUCAGAGGAUAUGCUUAAAAGCAGAAGGCUGUAUUUCUAUUUGUUAUGAAAUUUUAUAA [JR_ExcFMNA_Sub003] | 109
6 | GGAUAGGACAGAGGAUAUGGACAGUCUACAAAGUAGGCUGAAAAUCCUUGAAUGGAAGUGAUGUUUCCAGAAGGCUGUCCUAUCG [FmnBX 20 - #SwitchBubble #StaticStem #Palindromic] | 164
7 | GUUCUCGAAACUCAGUGAUGUUGAGUUGCAGAGGAUAUCCGCACAUGGAGAAGGCUGCAGUAAUUUAAAGACUCAGCGGCGCUCC [Riare] | 120
8 | UUUAUGAUGUCGGCCGCCACUGGAUUAAUAUGUGUGUAAUCUAGUUCUGAGUGAUGUUUAGAGUCCAGGACCGGGACAUUUGUUA [#11 K4 Tryptophan B Exclusion] | 649

same assay, conditions: Eterna round: R107; input ligand: tryptophan 2.4 mM

Row | Sequence | apparent KD of K4 kissing-loop reporter [nM]
9 | AAUCCUAACGGAGUGAUGUUCCGUAGCGAUACCAGCCAUUGCGAUGGCCCUUGGCAGCGCUAUAAGCAUUGCUAGUAAGGGCCAA [Theo A Ex t7] | 159
10 | AAGUGUGUGGCGGCCGCCACUAGAAUCCAGUGAUGUUGGAGUUAUCAGAUAAAUGAUAAUCAACAUAGGACCGGGCCAUAUAGAA [Same State - Tryptophan B (Freestyle 5)] | 425
11 | CCUAUCUCUUACGAUACCAGUCAAUGAUAUUUUAUCAAUGCCCUCACCGAGUGAUGUUCGGACCCUUGGCAGCGUCUGGGAUAGG [pvppimullin] | 191
12 | AAUUACCUAGUGAUGUUGGGAAUAAUAUAACGAGGACCGGUACGGCCGCCACUCGAGGUCCUAAUUAAGAACGCGAAAGCGAAGA [Tryptophan A Exclusion; Euphoria Solution] | 189
13 | UUGGAGUGAUGUUCCAUGUCUUGAGCCGAAGGAGCGCCUUUCUAGGCAGGUAGGUCGCGGCAGAAGGUACCAGUGAUGUUGGAAA [Same State Arginine A GF9] | 164
14 | UGCUUUAUCAGAAGGAGCGCGUUAUUCAUAAUAAUAAUCAGUGAUGUUGAUAUAUGAUGAUUGCAGGUAGGUCGCUGAUAUAGCU [KL-XARG-B3] | 259
15 | AGAUAGGGCUGAAGGAGCGUCGGAGAAGAGAAGAAGGAAUCCAGUGAUGUUGGAUAAAUCCGACAGGUAGGUCGCAGUUUUAUGA [hbob_SS_Arginine_B_2t138] | 115
16 | UAUUUAGUGACGGCCGCCACUAUGGUGAUUUAUUUGUUUGAGUGAUGUUUUGAUGUUUGAUUUUGUAGGACCGGGUUAUGUGUUG [yyycmullin] | 595
17 | AUUAAUUUCAGAGGAUAUGCUUUAUUAUUAUUUUUAAAUAAUAUAAGCAGUGAUGUUGCUUUUUAUGCAGAAGGCUGAUUUAUAA [JR_SSFMNB_Sub016] | 360
18 | CUUAUUUCUCGCUAUGAUGUUAGUUGAGCCAAGGAUAUUAAUGAAUUAAGAAGGUGGGUUUUUAAGUGAUGUUUUGAGACUGGCA [theeternabot_exclusion_KL_FMN_A_27] | 568
19 | CCAUCGCUAUUCGAUACCAGCCAGGAGGUCUUUGGCCUCCUAUUGGAGUGAUGUUCCAUAGGCCCUUGGCAGCGAAUAGUGAUGG [Theophylline B K4 16] | 374
20 | GCAGGAUAGCGCGGUGCAGUGAUGUUGCACCGAGGACCGGUACGGCCGCCACUCGCUUAGAUAUCGUGUGAUGGGUAUGUCUAGA [theeternabot_exclusion_KL_Trp_A_8] | 119
21 | AGUGCACUGUCAGGAUAUAUACAGUGAUGUUGUGUAUGUCAGCAAGUCAAAGACUUGCUAUUCUGUGUAGAAGGGACUGUGUACA [Omei KL FMN B Exc A v1] | 221
22 | GUGGCGACGCAAGGAUAUGGGUGCUAGUGAUGUUAGCCUUUGCUCCAUGUCACGUGGUCUGCACACCCAGAAGGUGCGGGAAGAU [theeternabot_exclusion_KL_FMN_B_9] | 354
23 | AAGUGAUGUUGUAGUGAUGUUGUGAUGUUGCAGGAUAUAUAGUGAUGUAGAAGGGUAUGUGCAGUGUUGUUGUUUGAGUGUUGAU [twwumullin] | 68.7
24 | AAGUGAUGUUGUAGUGAUGUUGUGAUGUUGCAGGAUAUAUAGUGAUGUAGAAGGGUAUGUACUUAUUUUUUAUUUGAGUUAUGUU [mmvmmullin] | 57.2

Row | Sequence | apparent KD of K4 kissing-loop reporter [nM]
25 | AAGAGGUAGGCGGCCGCCACUUGUUGUGAACACAUACGAGCCAGUGAUGUUGGUAUUGUGUGCGGAAGGACCGGGCCUACCUGAA [Exclusion - Tryptophan B (Freestyle 21)] | 140
26 | GGAGUUACCUGGGAUACCAGUCGGAGUCCCAGAGCUCAGAGUGAUGUUCUGGGAUGUUUCGGCCCUUGGCAGCUCUGGGACUCCC [#2 Exclusion - Theophylline B Attempt #12 (HarryS)] | 466
27 | CGUUGUGAUGCUUGUGCUCAUACCGGAGAUACCAGUACCAUCACUUACCCUUGGCAGCUCAGUAAAGACAAGUGAUGUUUGUCAC [theeternabot_sameState_KL_Theo_A_38] | 502
28 | GCAGGACGAGGAGGAGGAUGAAUUACUGAAGGAGCGCAUAUUUUUGCAGGUAGGUCGCGGUAAACAAGUAUAGUGAUGUUAUAUC [SSArgA.N] | 442
29 | AGACCACAAAGUGGUCAGUGUUCGCUGCCGCGAGGACCGGUACGGCCGCCACUCGCGAGUGAUGUUCGCGAGGGCAGCGAACACA [Omei KL Tryp A Exc A v4] | 106
30 | AUUAAGAUAUGAGUGAUGUUUAUGUCCGAAGGAGCGUGCGAAAGUACAGGUAGGUCGCGGAUGUGAGUGAUGUUUAUGUAAGCGU [KL-XArg-A15 #analogue] | 83.4
31 | AUAGGCAUAGCCCGAGUGAUGUUCGACGAUACCAGCCUCGAUAGAGGCCCUUGGCAGCGUAAAUGAUCAUGAAGCCAAGGAAUUA [whbob_Ex_Theo_A_th70] | 277
32 | CAGAACUUGUAUACAGGGCAUGCCAGAGAUACCAGUCAAAUGGAAGGCCCUUGGCAGCUCAGGCGAGUGAUGUUCGCAGGCUGAC [Exclusion Theophylline A GF 19] | 133
33 | AGACUACUGAUAGGAUAUAACAUCCUAGUCGUAUACCGAAAGGUAUACGAUUUCCUUCUAGUGAUGUUAGAAGGGUCGGUAGUCA [Omei KL FMN B Exc B v11] | 89.1
34 | GGAUAGGAGAGAGGAUAUGGGCUAGGCAAGAAUAACUUGUCUAGCAAAUCCAUGAGGAGUGAUGUUCCAGAAGGCUCUCCUAUCG [FmnBX 1 G9+C77] | 139
35 | CAAAACGAGUGAUGUUCGGACAACAACGUUAAGGAUAUACUUCUCUGUAGAAGGUAACAGUAUUUAUAUUUCAUCAACGAAAAUG [theeternabot_exclusion_KL_FMN_A_12] | 181
36 | AAAUAUUCGAGUGAUGUUCGAUAAAUUUCAGAGGAUAUGCUUAAAAGCAGAAGGCUGUAUUUCUAUUUGUUAUGAAAUUUUAUAA [JR_ExcFMNA_Sub003] | 73.3
37 | GGAUAGGACAGAGGAUAUGGACAGUCUACAAAGUAGGCUGAAAAUCCUUGAAUGGAAGUGAUGUUUCCAGAAGGCUGUCCUAUCG [FmnBX 20 - #SwitchBubble #StaticStem #Palindromic] | 150
38 | GUUCUCGAAACUCAGUGAUGUUGAGUUGCAGAGGAUAUCCGCACAUGGAGAAGGCUGCAGUAAUUUAAAGACUCAGCGGCGCUCC [Riare] | 115
39 | UUUAUGAUGUCGGCCGCCACUGGAUUAAUAUGUGUGUAAUCUAGUUCUGAGUGAUGUUUAGAGUCCAGGACCGGGACAUUUGUUA [#11 K4 Tryptophan B Exclusion] | 452
